Measurements: paper PMC6249252, “COMP and TSP-4 interact specifically with the novel GXKGHR motif only found in fibrillar collagens” (Scientific Reports, 2018)

Legend:
Assay in all cases: ELISA; collagen model peptide or collagen XI coated; COMP or TSP-4 at indicated concentrations in TBS-T with 0.25% BSA, 1 h, room temperature; detected with anti-COMP or anti-TSP-4 antibody; four-parameter logistic fit; apparent KD
[1] = target: GVKGHR foldon collagen model peptide (minimal binding site) (not stated | bacteriophage T4)
[2] = target: … foldon collagen model peptide (histidine to proline) (not stated | bacteriophage T4)
[3] = target: … foldon collagen model peptide (valine to proline) (not stated | bacteriophage T4)

Sequence of cartilage oligomeric matrix protein (COMP), wild type, pentameric (P49747 21-757): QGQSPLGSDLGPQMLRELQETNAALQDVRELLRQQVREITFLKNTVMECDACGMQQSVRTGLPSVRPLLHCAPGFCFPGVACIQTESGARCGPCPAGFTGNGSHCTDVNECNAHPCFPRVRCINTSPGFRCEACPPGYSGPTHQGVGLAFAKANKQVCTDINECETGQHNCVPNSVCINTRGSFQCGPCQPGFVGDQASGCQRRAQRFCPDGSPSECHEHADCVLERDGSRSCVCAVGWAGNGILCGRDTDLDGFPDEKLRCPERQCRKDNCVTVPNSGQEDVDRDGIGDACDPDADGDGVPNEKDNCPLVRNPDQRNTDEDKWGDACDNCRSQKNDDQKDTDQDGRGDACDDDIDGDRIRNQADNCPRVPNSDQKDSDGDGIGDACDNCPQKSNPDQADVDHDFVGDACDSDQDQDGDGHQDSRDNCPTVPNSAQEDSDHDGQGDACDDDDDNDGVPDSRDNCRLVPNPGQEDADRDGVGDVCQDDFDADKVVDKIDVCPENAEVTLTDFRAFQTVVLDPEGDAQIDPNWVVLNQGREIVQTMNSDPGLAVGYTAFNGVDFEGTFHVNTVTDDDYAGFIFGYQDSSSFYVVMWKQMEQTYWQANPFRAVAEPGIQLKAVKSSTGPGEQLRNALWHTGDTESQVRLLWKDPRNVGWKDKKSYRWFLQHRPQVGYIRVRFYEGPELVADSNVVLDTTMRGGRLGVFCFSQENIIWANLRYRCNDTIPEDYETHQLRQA
Sequence of thrombospondin-4 (TSP-4) (P35443 27-961): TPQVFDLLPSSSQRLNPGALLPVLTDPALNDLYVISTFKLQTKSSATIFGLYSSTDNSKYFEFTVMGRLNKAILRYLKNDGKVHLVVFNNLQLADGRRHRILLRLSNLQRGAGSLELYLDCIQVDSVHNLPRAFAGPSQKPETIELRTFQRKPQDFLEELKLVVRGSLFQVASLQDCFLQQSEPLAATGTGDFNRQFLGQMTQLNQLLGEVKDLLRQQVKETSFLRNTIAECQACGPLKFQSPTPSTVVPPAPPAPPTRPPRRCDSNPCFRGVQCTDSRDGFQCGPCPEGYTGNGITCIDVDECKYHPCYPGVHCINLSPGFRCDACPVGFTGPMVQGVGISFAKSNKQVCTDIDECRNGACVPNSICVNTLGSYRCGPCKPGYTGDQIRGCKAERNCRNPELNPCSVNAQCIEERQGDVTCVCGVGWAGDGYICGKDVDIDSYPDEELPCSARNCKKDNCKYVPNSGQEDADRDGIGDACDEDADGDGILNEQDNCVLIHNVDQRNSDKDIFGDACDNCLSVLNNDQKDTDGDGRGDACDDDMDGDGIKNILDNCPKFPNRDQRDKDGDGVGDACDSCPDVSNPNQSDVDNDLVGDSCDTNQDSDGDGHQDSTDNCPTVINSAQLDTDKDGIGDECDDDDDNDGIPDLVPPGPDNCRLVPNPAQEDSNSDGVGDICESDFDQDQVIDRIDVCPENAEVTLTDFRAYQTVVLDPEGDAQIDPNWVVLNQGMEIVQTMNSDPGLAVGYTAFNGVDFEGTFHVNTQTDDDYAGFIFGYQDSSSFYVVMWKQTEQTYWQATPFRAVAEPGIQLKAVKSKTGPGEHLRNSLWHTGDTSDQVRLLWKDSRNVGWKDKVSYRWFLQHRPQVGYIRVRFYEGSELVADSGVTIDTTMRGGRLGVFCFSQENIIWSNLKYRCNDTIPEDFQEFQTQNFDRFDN

Row | Kd [1] | Kd [2] | Kd [3] | Substance
1 | 0.56 nM | – | – | thrombospondin-4 (TSP-4) (from UniProt P35443 27-961) (natural protein)
2 | 1.61 nM | 496 nM | 2.26 nM | cartilage oligomeric matrix protein (COMP), wild type, pentameric (from UniProt P49747 21-757) (natural protein)
